# T1: P5mSN
# T1 chain: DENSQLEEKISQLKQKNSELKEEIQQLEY
# T2: P9mSN
# T2 chain: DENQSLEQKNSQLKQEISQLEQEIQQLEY
# T3: P3mSN
# T3 chain: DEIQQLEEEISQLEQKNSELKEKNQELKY
# T4: P8mSN
# T4 chain: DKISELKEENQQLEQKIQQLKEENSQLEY
# T5: P7mSN
# T5 chain: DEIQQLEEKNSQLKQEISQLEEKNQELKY
# T6: P6mSN
# T6 chain: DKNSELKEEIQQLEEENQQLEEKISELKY
# T7: 4H2758-AA
# T7 chain: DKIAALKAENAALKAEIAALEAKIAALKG
# T8: 4H2873-AA
# T8 chain: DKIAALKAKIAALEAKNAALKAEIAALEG
# T9: 4H2646-AA
# T9 chain: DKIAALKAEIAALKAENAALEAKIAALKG
# T10: 4H390-AA
# T10 chain: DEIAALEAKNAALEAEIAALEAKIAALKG
# T11: 4H3595-AA
# T11 chain: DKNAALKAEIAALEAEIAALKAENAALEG
# T12: 4H510-AA
# T12 chain: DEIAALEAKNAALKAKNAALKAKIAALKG
# T13: 4H816-AA
# T13 chain: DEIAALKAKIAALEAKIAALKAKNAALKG
# T14: 4H3409-AA
# T14 chain: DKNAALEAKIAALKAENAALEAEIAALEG
# T15: 4H775-AA
# T15 chain: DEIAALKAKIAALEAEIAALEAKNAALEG
# T16: 4H87-AA
# T16 chain: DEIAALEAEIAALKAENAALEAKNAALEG
# T17: 4H3940-AA
# T17 chain: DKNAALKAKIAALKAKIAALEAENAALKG
# T18: 4H2512-AA
# T18 chain: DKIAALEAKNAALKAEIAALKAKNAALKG
# T19: 4H278-AA
# T19 chain: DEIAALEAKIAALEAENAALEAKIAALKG
# T20: 4H2705-AA
# T20 chain: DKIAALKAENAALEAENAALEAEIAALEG
# T21: 4H3625-AA
# T21 chain: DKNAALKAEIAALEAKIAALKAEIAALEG
# T22: 4H2687-AA
# T22 chain: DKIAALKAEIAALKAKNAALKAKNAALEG
# T23: 4H233-AA
# T23 chain: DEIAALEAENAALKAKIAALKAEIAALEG
# T24: 4H2985-AA
# T24 chain: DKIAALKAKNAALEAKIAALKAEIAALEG
# T25: 4H3134-AA
# T25 chain: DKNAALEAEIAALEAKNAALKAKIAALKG
# T26: 4H683-bA
# T26 chain: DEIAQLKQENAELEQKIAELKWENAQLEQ
# T27: 4H4073-bA
# T27 chain: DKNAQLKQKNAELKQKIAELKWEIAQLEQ
# T28: 4H953-bA
# T28 chain: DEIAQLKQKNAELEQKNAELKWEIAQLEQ
# T29: 4H855-bA
# T29 chain: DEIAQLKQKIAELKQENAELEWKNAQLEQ
# T30: 4H754-bA
# T30 chain: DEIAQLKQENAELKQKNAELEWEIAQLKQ
# T31: 4H457-bA
# T31 chain: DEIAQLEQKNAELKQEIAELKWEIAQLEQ
# T32: 4H797-bA
# T32 chain: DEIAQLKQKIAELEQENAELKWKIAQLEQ
# T33: 4H949-bN
# T33 chain: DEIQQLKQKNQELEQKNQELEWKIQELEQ
# T34: 4H918-bA
# T34 chain: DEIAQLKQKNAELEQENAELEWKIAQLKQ
# T35: 4H780-bA
# T35 chain: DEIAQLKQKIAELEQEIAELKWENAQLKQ
# T36: 4H575-bA
# T36 chain: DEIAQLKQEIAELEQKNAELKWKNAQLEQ
# T37: 4H968-bA
# T37 chain: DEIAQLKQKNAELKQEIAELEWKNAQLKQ
# How the values were obtained:
# [1] = target: T1, P5mSN; test: two-hybrid library CCNG1;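 note: natural log of median RNA to DNA barcode read ratio; higher means stronger binding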
# [2] = target: T2, P9mSN; test: two-hybrid library CCNG1;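 note: natural log of median RNA to DNA barcode read ratio; higher means stronger binding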
# [3] = target: T3, P3mSN; test: two-hybrid library CCNG1;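 note: natural log of median RNA to DNA barcode read ratio; higher means stronger binding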
# [4] = target: T4, P8mSN; test: two-hybrid library CCNG1;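 note: natural log of median RNA to DNA barcode read ratio; higher means stronger binding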
# [5] = target: T5, P7mSN; test: two-hybrid library CCNG1;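 note: natural log of median RNA to DNA barcode read ratio; higher means stronger binding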
# [6] = target: T6, P6mSN; test: two-hybrid library CCNG1;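 note: natural log of median RNA to DNA barcode read ratio; higher means stronger binding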
# [7] = target: T7, 4H2758-AA; test: two-hybrid library CCmax; conditions: mean of both orientations
# [8] = target: T8, 4H2873-AA; test: two-hybrid library CCmax; conditions: mean of both orientations
# [9] = target: T9, 4H2646-AA; test: two-hybrid library CCmax; conditions: mean of both orientations
# [10] = target: T10, 4H390-AA; test: two-hybrid library CCmax; conditions: mean of both orientations
# [11] = target: T11, 4H3595-AA; test: two-hybrid library CCmax
# [12] = target: T12, 4H510-AA; test: two-hybrid library CCmax; conditions: mean of both orientations
# [13] = target: T13, 4H816-AA; test: two-hybrid library CCmax; conditions: mean of both orientations
# [14] = target: T14, 4H3409-AA; test: two-hybrid library CCmax
# [15] = target: T15, 4H775-AA; test: two-hybrid library CCmax; conditions: mean of both orientations
# [16] = target: T16, 4H87-AA; test: two-hybrid library CCmax
# [17] = target: T17, 4H3940-AA; test: two-hybrid library CCmax; conditions: mean of both orientations
# [18] = target: T18, 4H2512-AA; test: two-hybrid library CCmax; conditions: mean of both orientations
# [19] = target: T19, 4H278-AA; test: two-hybrid library CCmax; conditions: mean of both orientations
# [20] = target: T20, 4H2705-AA; test: two-hybrid library CCmax; conditions: mean of both orientations
# [21] = target: T21, 4H3625-AA; test: two-hybrid library CCmax; conditions: mean of both orientations
# [22] = target: T22, 4H2687-AA; test: two-hybrid library CCmax; conditions: mean of both orientations
# [23] = target: T23, 4H233-AA; test: two-hybrid library CCmax
# [24] = target: T24, 4H2985-AA; test: two-hybrid library CCmax; conditions: mean of both orientations
# [25] = target: T25, 4H3134-AA; test: two-hybrid library CCmax; conditions: mean of both orientations
# [26] = target: T26, 4H683-bA; test: two-hybrid library CCNG1
# [27] = target: T27, 4H4073-bA; test: two-hybrid library CCNG1
# [28] = target: T28, 4H953-bA; test: two-hybrid library CCNG1
# [29] = target: T29, 4H855-bA; test: two-hybrid library CCNG1
# [30] = target: T30, 4H754-bA; test: two-hybrid library CCNG1
# [31] = target: T31, 4H457-bA; test: two-hybrid library CCNG1
# [32] = target: T32, 4H797-bA; test: two-hybrid library CCNG1
# [33] = target: T33, 4H949-bN; test: two-hybrid library CCNG1
# [34] = target: T34, 4H918-bA; test: two-hybrid library CCNG1
# [35] = target: T35, 4H780-bA; test: two-hybrid library CCNG1
# [36] = target: T36, 4H575-bA; test: two-hybrid library CCNG1
# [37] = target: T37, 4H968-bA; test: two-hybrid library CCNG1
binder,measurement,setting,value
DEIQQLEEEISQLEQKNSELKEKNQELKY [P3mSN],interaction score,[1],-0.781
same,interaction score,[2],-0.0425
same,interaction score,[3],-0.0204
same,interaction score,[4],-0.172
same,interaction score,[5],-0.239
same,interaction score,[6],-0.522
DEIAALEAENAALKAKIAALKAEIAALEG [4H233-AA],interaction score,[7],1.97
same,interaction score,[8],-0.478
same,interaction score,[9],1.88
same,interaction score,[10],2.39
same,interaction score,[11],0.594
same,interaction score,[12],-1.24
same,interaction score,[13],-0.563
same,interaction score,[14],1.43
same,interaction score,[15],-1.43
same,interaction score,[16],-1.84
same,interaction score,[17],-1.57
same,interaction score,[18],0.368
same,interaction score,[19],1.7
same,interaction score,[20],1
same,interaction score,[21],-0.183
same,interaction score,[22],-1.45
same,interaction score,[23],1.43
same,interaction score,[24],0.682
same,interaction score,[25],-0.974
DKNAQLKQKNAELKQKIAELKWEIAQLEQ [4H4073-bA],interaction score,[26],-0.684
same,interaction score,[27],-0.968
same,interaction score,[28],-1.91
same,interaction score,[29],-1.17
same,interaction score,[30],-1.31
same,interaction score,[31],-1.06
same,interaction score,[32],-1.27
same,interaction score,[33],-1.71
same,interaction score,[34],-0.789
same,interaction score,[3],-4.32
same,interaction score,[35],-1.4
same,interaction score,[36],-1.51
same,interaction score,[37],-1.01

# — paper PMC10397247
